Here are results for 2 molecules from article PMC3765442.

As a reminder, the stoichiometry N is the number of molecules, sites or subunits per partner or assembly.

Holding throughout (details): remark: other sources report otherwise
Experiment [1] deals with T1, EB1-GFP (C-terminally EGFP-His-tagged human EB1) (human), Q15691.
T1 chain: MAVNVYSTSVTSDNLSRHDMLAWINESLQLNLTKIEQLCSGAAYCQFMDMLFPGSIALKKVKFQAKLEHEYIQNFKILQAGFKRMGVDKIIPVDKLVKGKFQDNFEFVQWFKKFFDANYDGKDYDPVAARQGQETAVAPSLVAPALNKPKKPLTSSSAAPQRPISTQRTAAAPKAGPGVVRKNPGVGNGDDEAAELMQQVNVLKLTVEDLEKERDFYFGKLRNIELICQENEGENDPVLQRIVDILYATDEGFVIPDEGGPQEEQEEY
The experiment can be described thus: AUC; fluorescence sedimentation velocity (GFP signal at 488 nm), 22°C; dilution series from about 500 to about 0.5 nM (monomer equivalents); 20 mM Tris-HCl pH 7.5, 300 mM NaCl, 0.2 mg/ml BSA, 2 mM DTT or 0.1 mM TCEP; samples incubated 16 hours at 22°C; dimer to monomers; apparent Kd.

The target in experiment [2] is T1, EB1-GFP (C-terminally EGFP-His-tagged …). Put plainly: SEC-MALS; Superdex 200 10/30 with in-line multi-angle light scattering; 1 to 4 mg/ml injected in 100 µl (about 1 µM at the peak); 20 mM Tris-HCl pH 7.5, 300 mM NaCl, 2 mM DTT; room temperature; single experiments. A general note: In gel filtration, larger molecules generally elute earlier.
Experiment [3] has as its target T2, EB1-GFP[A206K] (human), Q15691.
T2 chain: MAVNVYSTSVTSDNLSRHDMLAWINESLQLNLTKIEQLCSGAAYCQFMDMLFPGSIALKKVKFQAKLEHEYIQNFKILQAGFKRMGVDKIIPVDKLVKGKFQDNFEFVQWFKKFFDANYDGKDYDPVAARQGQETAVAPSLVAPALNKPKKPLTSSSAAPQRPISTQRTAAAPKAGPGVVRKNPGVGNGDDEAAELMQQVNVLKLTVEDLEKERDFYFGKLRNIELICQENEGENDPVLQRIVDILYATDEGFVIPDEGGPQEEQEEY
Put plainly: AUC; fluorescence sedimentation velocity (GFP signal at 488 nm), 22°C; dilution series from about 500 to about 0.5 nM (monomer equivalents); 20 mM Tris-HCl pH 7.5, 300 mM NaCl, 0.2 mg/ml BSA, 2 mM DTT or 0.1 mM TCEP; samples incubated 16 hours at 22°C; dimer to monomers; apparent Kd.

B1: EB1-GFP (C-terminally EGFP-His-tagged human EB1), Q15691 1-268 (natural protein)
chain: MAVNVYSTSVTSDNLSRHDMLAWINESLQLNLTKIEQLCSGAAYCQFMDMLFPGSIALKKVKFQAKLEHEYIQNFKILQAGFKRMGVDKIIPVDKLVKGKFQDNFEFVQWFKKFFDANYDGKDYDPVAARQGQETAVAPSLVAPALNKPKKPLTSSSAAPQRPISTQRTAAAPKAGPGVVRKNPGVGNGDDEAAELMQQVNVLKLTVEDLEKERDFYFGKLRNIELICQENEGENDPVLQRIVDILYATDEGFVIPDEGGPQEEQEEY
With B1, the stoichiometry N in experiment [1] and in experiment [2] was 2 each time.

B2: EB1-GFP[A206K], Q15691 1-268 (natural protein)
chain: MAVNVYSTSVTSDNLSRHDMLAWINESLQLNLTKIEQLCSGAAYCQFMDMLFPGSIALKKVKFQAKLEHEYIQNFKILQAGFKRMGVDKIIPVDKLVKGKFQDNFEFVQWFKKFFDANYDGKDYDPVAARQGQETAVAPSLVAPALNKPKKPLTSSSAAPQRPISTQRTAAAPKAGPGVVRKNPGVGNGDDEAAELMQQVNVLKLTVEDLEKERDFYFGKLRNIELICQENEGENDPVLQRIVDILYATDEGFVIPDEGGPQEEQEEY
With B2, the stoichiometry N in experiment [3] came out at 2.
